# Results: patent US10253076B2, “Peptides and combination of peptides for use in immunotherapy against ovarian cancer and other cancers” (immatics biotechnologies GmbH, priority 2015, dated 2019)
# Target: HLA-A*02:01 (Homo sapiens, UniProt P04439, D140Y/D185E/D98H/E176V/E277Q/G131W/G231S/I119V/I121R/I166T/I218V/L300P/L318F/N151K/N90K/P208A/P217A/Q86G/Q94H/R138H/R169H/T345S)
# Assay: MHC binding assay (UV-ligand exchange, beta2m ELISA, peptide exchange yield)
# Conditions: binding of HLA-class I restricted peptides to HLA-A*02:01, ranged by peptide exchange yield (UV-ligand exchange, β2m ELISA)
# How it was run: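 Peptide–HLA-A*02:01 complexes made by UV-mediated exchange of a photocleavable peptide with the test peptide. Exchange products diluted 100-fold on streptavidin-coated plates, 1 h at 37°C, then HRP anti-β2m 1 h at 37°C; TMB read at 450 nm to give exchange yield.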
row,Substance,Peptide exchange
1,490 (FLLQHVQEL; listed as Homo sapiens) [compound 490],″+++″ (≥50% = +++)
2,441 (ALLENPKMEL; listed as Homo sapiens) [compound 441],″+++″ (≥50% = +++)
3,161 (ALLEGVNTV; listed as Homo sapiens) [compound 161],″+++″ (≥50% = +++)
4,594 (IMLKGDNITL; listed as Homo sapiens) [compound 594],″+++″ (≥50% = +++)
5,542 (RVWDISTVSSV; listed as Homo sapiens) [compound 542],″+++″ (≥50% = +++)
6,274 (SLLFSLFEA; listed as Homo sapiens) [compound 274],″++″ (≥20% = ++)
7,608 (SLLSVSHAL; listed as Homo sapiens) [compound 608],″+++″ (≥50% = +++)
8,171 (LLLPLQILL; listed as Homo sapiens) [compound 171],″+++″ (≥50% = +++)
9,67 (TLLAEALVTV; listed as Homo sapiens) [compound 67],″+++″ (≥50% = +++)
10,230 (ILVDWLVEV; listed as Homo sapiens) [compound 230],″+″ (≥10% = +)
11,302 (ALLQEGEVYSA; listed as Homo sapiens) [compound 302],″+++″ (≥50% = +++)
12,281 (ILRESTEEL; listed as Homo sapiens) [compound 281],″+++″ (≥50% = +++)
13,377 (FLLDSSASV; listed as Homo sapiens) [compound 377],″++″ (≥20% = ++)
14,492 (SLFDGFADGLGV; listed as Homo sapiens) [compound 492],″+++″ (≥50% = +++)
15,408 (VLDDSIYLV; listed as Homo sapiens) [compound 408],″++″ (≥20% = ++)
16,96 (YIFTDNPAAV; listed as Homo sapiens) [compound 96],″+++″ (≥50% = +++)
17,599 (YLLNDASLISV; listed as Homo sapiens) [compound 599],″+++″ (≥50% = +++)
18,433 (AMLNEPWAV; listed as Homo sapiens) [compound 433],″+++″ (≥50% = +++)
19,363 (KVLDVSDLESV; listed as Homo sapiens) [compound 363],″++″ (≥20% = ++)
20,468 (YLRSVGDGETV; listed as Homo sapiens) [compound 468],″+++″ (≥50% = +++)

row,Substance,Peptide exchange
1,469 (YLASDEITTV; listed as Homo sapiens) [compound 469],″+++″ (≥50% = +++)
2,149 (NLLELFVQL; listed as Homo sapiens) [compound 149],″+++″ (≥50% = +++)
3,317 (SLAALVVHV; listed as Homo sapiens) [compound 317],″+++″ (≥50% = +++)
4,305 (SIANFSEFYV; listed as Homo sapiens) [compound 305],″++++″ (≥75% = ++++)
5,370 (SLLQDLVSV; listed as Homo sapiens) [compound 370],″+++″ (≥50% = +++)
6,224 (TLIDAQWVL; listed as Homo sapiens) [compound 224],″+++″ (≥50% = +++)
7,507 (KLIDDQDISISL; listed as Homo sapiens) [compound 507],″+++″ (≥50% = +++)
8,6 (VLVSDGVHSV; listed as Homo sapiens) [compound 6],″+++″ (≥50% = +++)
9,154 (ALDDGTPAL; listed as Homo sapiens) [compound 154],″++″ (≥20% = ++)
10,397 (YLFGERLLEC; listed as Homo sapiens) [compound 397],″+++″ (≥50% = +++)
11,120 (ALLGIPLTLV; listed as Homo sapiens) [compound 120],″+++″ (≥50% = +++)
12,587 (VMNDRLYAI; listed as Homo sapiens) [compound 587],″+++″ (≥50% = +++)
13,147 (SLLEAVSFL; listed as Homo sapiens) [compound 147],″+++″ (≥50% = +++)
14,428 (KLGHTDILVGV; listed as Homo sapiens) [compound 428],″++″ (≥20% = ++)
15,235 (YLNDLHEVLL; listed as Homo sapiens) [compound 235],″++++″ (≥75% = ++++)
16,308 (SQYSGQLHEV; listed as Homo sapiens) [compound 308],″+++″ (≥50% = +++)
17,117 (ILPDGEDFLAV; listed as Homo sapiens) [compound 117],″+++″ (≥50% = +++)
18,431 (SLVNVVPKL; listed as Homo sapiens) [compound 431],″++″ (≥20% = ++)
19,15 (VLLTFKIFL; listed as Homo sapiens) [compound 15],″++″ (≥20% = ++)

# Results, then the substance that gave them:
row,Peptide exchange,Substance
1,″+++″ (≥50% = +++),313 (VLFDDELLMV; listed as Homo sapiens) [compound 313]
2,″+++″ (≥50% = +++),386 (ILFRYPLTI; listed as Homo sapiens) [compound 386]
3,″+++″ (≥50% = +++),78 (SLFSSLEPQIQPV; listed as Homo sapiens) [compound 78]
4,″++″ (≥20% = ++),94 (YLIDIKTIAI; listed as Homo sapiens) [compound 94]
5,″+++″ (≥50% = +++),365 (YVIDQGETDVYV; listed as Homo sapiens) [compound 365]
6,″+++″ (≥50% = +++),584 (ALAEVAAMENV; listed as Homo sapiens) [compound 584]
7,″++″ (≥20% = ++),522 (TLWYRSPEV; listed as Homo sapiens) [compound 522]
8,″+++″ (≥50% = +++),101 (ILVGGGALATV; listed as Homo sapiens) [compound 101]
9,″+++″ (≥50% = +++),83 (ILAPTVMMI; listed as Homo sapiens) [compound 83]
10,″++++″ (≥75% = ++++),371 (FLQAHLHTA; listed as Homo sapiens) [compound 371]
11,″+++″ (≥50% = +++),74 (ALLDPEVLSIFV; listed as Homo sapiens) [compound 74]
12,″+++″ (≥50% = +++),16 (VLFQGQASL; listed as Homo sapiens) [compound 16]
13,″++++″ (≥75% = ++++),178 (ALTEIAFVV; listed as Homo sapiens) [compound 178]
14,″+++″ (≥50% = +++),173 (LLDSASAGLYL; listed as Homo sapiens) [compound 173]
15,″+++″ (≥50% = +++),530 (VMYADIGGMDI; listed as Homo sapiens) [compound 530]
16,″++″ (≥20% = ++),92 (YLIPFTGIVGL; listed as Homo sapiens) [compound 92]
17,″++″ (≥20% = ++),409 (LLDAMNYHL; listed as Homo sapiens) [compound 409]
18,″+++″ (≥50% = +++),249 (LLDGFLVNV; listed as Homo sapiens) [compound 249]
19,″+++″ (≥50% = +++),182 (MLLEAPGIFL; listed as Homo sapiens) [compound 182]

row,Peptide exchange,Substance
1,″+++″ (≥50% = +++),50 (SLSELEALM; listed as Homo sapiens) [compound 50]
2,″++″ (≥20% = ++),381 (FIDEAYVEV; listed as Homo sapiens) [compound 381]
3,″++″ (≥20% = ++),376 (AMFESSQNVLL; listed as Homo sapiens) [compound 376]
4,″+++″ (≥50% = +++),471 (YLYNNMIAKI; listed as Homo sapiens) [compound 471]
5,″++++″ (≥75% = ++++),7 (SLVGLLLYL; listed as Homo sapiens) [compound 7]
6,″++″ (≥20% = ++),269 (RVLEVGALQAV; listed as Homo sapiens) [compound 269]
7,″++″ (≥20% = ++),279 (ALWGGTQPLL; listed as Homo sapiens) [compound 279]
8,″++″ (≥20% = ++),505 (SLAPGDVVRQV; listed as Homo sapiens) [compound 505]
9,″++″ (≥20% = ++),398 (KLLEEDGTIITL; listed as Homo sapiens) [compound 398]
10,″+++″ (≥50% = +++),551 (KLYESLLPFA; listed as Homo sapiens) [compound 551]
11,″++″ (≥20% = ++),186 (TLFFQQNAL; listed as Homo sapiens) [compound 186]
12,″+++″ (≥50% = +++),130 (FLWNGEDSALL; listed as Homo sapiens) [compound 130]
13,″+++″ (≥50% = +++),485 (NVPDSFNEV; listed as Homo sapiens) [compound 485]
14,″+++″ (≥50% = +++),239 (AAFAGKLLSV; listed as Homo sapiens) [compound 239]
15,″+++″ (≥50% = +++),49 (YLPAVFEEV; listed as Homo sapiens) [compound 49]
16,″++″ (≥20% = ++),18 (YLVAKLVEV; listed as Homo sapiens) [compound 18]
17,″+++″ (≥50% = +++),452 (ILLEHGADPNL; listed as Homo sapiens) [compound 452]
18,″+++″ (≥50% = +++),572 (ALADLIEKELSV; listed as Homo sapiens) [compound 572]
19,″+++″ (≥50% = +++),517 (LLMPIPEGLTL; listed as Homo sapiens) [compound 517]
